Measurements published in patent US20140294898A1 (published 2014).
Positions of bridges follow the written chain, without caps; N, C: chain ends. Non-standard residues stand in square brackets, D forms with d. Phe(4-tBu) = CC(C)(C)c1ccc(C[C@H](N)C(=O)O)cc1; Phe(4-Br) = N[C@@H](Cc1ccc(Br)cc1)C(=O)O; Phe(4-Cl) = N[C@@H](Cc1ccc(Cl)cc1)C(=O)O; Phe(4-F) = N[C@@H](Cc1ccc(F)cc1)C(=O)O; 3Pal = N[C@@H](Cc1cccnc1)C(=O)O; 4Pal = N[C@@H](Cc1ccncc1)C(=O)O; 3Thi = N[C@@H](Cc1ccsc1)C(=O)O; NMeNle = CCCC[C@H](NC)C(=O)O; dNle = CCCC[C@@H](N)C(=O)O; NMeA = CN[C@@H](C)C(=O)O; Sar = CNCC(=O)O

B1: Compound No. 52 (peptide)
peptide: FANPHLXWSWXXRCG
modifications: ClAc on N-terminus cyclized as thioether with Cys14; mAla (N-methyl-Ala) at 2; Dab (2,4-diaminobutyric acid, written X) at 7; mNle (N-methyl-norleucine, written X) at 11 and 12; C-terminal NH2
notes: macrocyclic peptide, Formula I series; also called Compound 52
B2: Compound No. 40 (peptide)
peptide: {CH2CO}-[3Thi][NMeA]NPHL[Sar]WSW[NMeNle][NMeNle]RCG-NH2
modifications: thioether N-14
SMILES: CCCC[C@H]1C(=O)N(C)[C@@H](CCCC)C(=O)N[C@@H](CCCNC(=N)N)C(=O)N[C@H](C(=O)NCC(N)=O)CSCC(=O)N[C@@H](Cc2ccsc2)C(=O)N(C)[C@@H](C)C(=O)N[C@@H](CC(N)=O)C(=O)N2CCC[C@H]2C(=O)N[C@@H](Cc2c[nH]cn2)C(=O)N[C@@H](CC(C)C)C(=O)N(C)CC(=O)N[C@@H](Cc2c[nH]c3ccccc23)C(=O)N[C@@H](CO)C(=O)N[C@@H](Cc2c[nH]c3ccccc23)C(=O)N1C
notes: macrocyclic peptide, Formula I series; also called Compound 40
B3: Compound No. 39 (peptide)
peptide: {CH2CO}-[4Pal][NMeA]NPHL[Sar]WSW[NMeNle][NMeNle]RCG-NH2
modifications: thioether N-14
SMILES: CCCC[C@H]1C(=O)N(C)[C@@H](CCCC)C(=O)N[C@@H](CCCNC(=N)N)C(=O)N[C@H](C(=O)NCC(N)=O)CSCC(=O)N[C@@H](Cc2ccncc2)C(=O)N(C)[C@@H](C)C(=O)N[C@@H](CC(N)=O)C(=O)N2CCC[C@H]2C(=O)N[C@@H](Cc2c[nH]cn2)C(=O)N[C@@H](CC(C)C)C(=O)N(C)CC(=O)N[C@@H](Cc2c[nH]c3ccccc23)C(=O)N[C@@H](CO)C(=O)N[C@@H](Cc2c[nH]c3ccccc23)C(=O)N1C
notes: macrocyclic peptide, Formula I series; also called Compound 39
B4: Compound No. 37 (peptide)
peptide: {CH2CO}-[Phe(4-tBu)][NMeA]NPHL[Sar]WSW[NMeNle][NMeNle]RCG-NH2
modifications: thioether N-14
SMILES: CCCC[C@H]1C(=O)N(C)[C@@H](CCCC)C(=O)N[C@@H](CCCNC(=N)N)C(=O)N[C@H](C(=O)NCC(N)=O)CSCC(=O)N[C@@H](Cc2ccc(C(C)(C)C)cc2)C(=O)N(C)[C@@H](C)C(=O)N[C@@H](CC(N)=O)C(=O)N2CCC[C@H]2C(=O)N[C@@H](Cc2c[nH]cn2)C(=O)N[C@@H](CC(C)C)C(=O)N(C)CC(=O)N[C@@H](Cc2c[nH]c3ccccc23)C(=O)N[C@@H](CO)C(=O)N[C@@H](Cc2c[nH]c3ccccc23)C(=O)N1C
notes: macrocyclic peptide, Formula I series; also called Compound 37
B5: Compound No. 69 (peptide)
peptide: FANPHLGWSWFXRCG
HELM: PEPTIDE1{[O=C(C[*:3])[*:2]].F.[meA].N.P.H.L.[Sar].W.S.W.F.[CCCC[C@@H](C(=O)[*:2])N(C)[*:1]].R.C.G.[am]}$PEPTIDE1,PEPTIDE1,1:R3-15:R3$$$V2.0
SMILES: CCCC[C@H]1C(=O)N[C@@H](CCCNC(=N)N)C(=O)N[C@H](C(=O)NCC(N)=O)CSCC(=O)N[C@@H](Cc2ccccc2)C(=O)N(C)[C@@H](C)C(=O)N[C@@H](CC(N)=O)C(=O)N2CCC[C@H]2C(=O)N[C@@H](Cc2c[nH]cn2)C(=O)N[C@@H](CC(C)C)C(=O)N(C)CC(=O)N[C@@H](Cc2c[nH]c3ccccc23)C(=O)N[C@@H](CO)C(=O)N[C@@H](Cc2c[nH]c3ccccc23)C(=O)N[C@@H](Cc2ccccc2)C(=O)N1C
notes: macrocyclic peptide, Formula I series; Phe at 11 is not N-methylated; also called Compound 69
B6: Compound No. 32 (peptide)
peptide: {CH2CO}-[Phe(4-F)][NMeA]NPHL[Sar]WSW[NMeNle][NMeNle]RCG-NH2
modifications: thioether N-14
SMILES: CCCC[C@H]1C(=O)N(C)[C@@H](CCCC)C(=O)N[C@@H](CCCNC(=N)N)C(=O)N[C@H](C(=O)NCC(N)=O)CSCC(=O)N[C@@H](Cc2ccc(F)cc2)C(=O)N(C)[C@@H](C)C(=O)N[C@@H](CC(N)=O)C(=O)N2CCC[C@H]2C(=O)N[C@@H](Cc2c[nH]cn2)C(=O)N[C@@H](CC(C)C)C(=O)N(C)CC(=O)N[C@@H](Cc2c[nH]c3ccccc23)C(=O)N[C@@H](CO)C(=O)N[C@@H](Cc2c[nH]c3ccccc23)C(=O)N1C
notes: macrocyclic peptide, Formula I series; also called Compound 32
B7: Compound No. 34 (peptide)
peptide: {CH2CO}-[Phe(4-Br)][NMeA]NPHL[Sar]WSW[NMeNle][NMeNle]RCG-NH2
modifications: thioether N-14
SMILES: CCCC[C@H]1C(=O)N(C)[C@@H](CCCC)C(=O)N[C@@H](CCCNC(=N)N)C(=O)N[C@H](C(=O)NCC(N)=O)CSCC(=O)N[C@@H](Cc2ccc(Br)cc2)C(=O)N(C)[C@@H](C)C(=O)N[C@@H](CC(N)=O)C(=O)N2CCC[C@H]2C(=O)N[C@@H](Cc2c[nH]cn2)C(=O)N[C@@H](CC(C)C)C(=O)N(C)CC(=O)N[C@@H](Cc2c[nH]c3ccccc23)C(=O)N[C@@H](CO)C(=O)N[C@@H](Cc2c[nH]c3ccccc23)C(=O)N1C
notes: macrocyclic peptide, Formula I series; also called Compound 34
B8: Compound No. 33 (peptide)
peptide: {CH2CO}-[Phe(4-Cl)][NMeA]NPHL[Sar]WSW[NMeNle][NMeNle]RCG-NH2
modifications: thioether N-14
SMILES: CCCC[C@H]1C(=O)N(C)[C@@H](CCCC)C(=O)N[C@@H](CCCNC(=N)N)C(=O)N[C@H](C(=O)NCC(N)=O)CSCC(=O)N[C@@H](Cc2ccc(Cl)cc2)C(=O)N(C)[C@@H](C)C(=O)N[C@@H](CC(N)=O)C(=O)N2CCC[C@H]2C(=O)N[C@@H](Cc2c[nH]cn2)C(=O)N[C@@H](CC(C)C)C(=O)N(C)CC(=O)N[C@@H](Cc2c[nH]c3ccccc23)C(=O)N[C@@H](CO)C(=O)N[C@@H](Cc2c[nH]c3ccccc23)C(=O)N1C
notes: macrocyclic peptide, Formula I series; also called Compound 33
B9: Compound No. 38 (peptide)
peptide: {CH2CO}-[3Pal][NMeA]NPHL[Sar]WSW[NMeNle][NMeNle]RCG-NH2
modifications: thioether N-14
SMILES: CCCC[C@H]1C(=O)N(C)[C@@H](CCCC)C(=O)N[C@@H](CCCNC(=N)N)C(=O)N[C@H](C(=O)NCC(N)=O)CSCC(=O)N[C@@H](Cc2cccnc2)C(=O)N(C)[C@@H](C)C(=O)N[C@@H](CC(N)=O)C(=O)N2CCC[C@H]2C(=O)N[C@@H](Cc2c[nH]cn2)C(=O)N[C@@H](CC(C)C)C(=O)N(C)CC(=O)N[C@@H](Cc2c[nH]c3ccccc23)C(=O)N[C@@H](CO)C(=O)N[C@@H](Cc2c[nH]c3ccccc23)C(=O)N1C
notes: macrocyclic peptide, Formula I series; also called Compound 38
B10: Compound No. 70 (peptide)
peptide: {CH2CO}-F[NMeA]NPHL[Sar]WSW[dNle][NMeNle]RCG-NH2
modifications: thioether N-14
SMILES: CCCC[C@H]1NC(=O)[C@H](Cc2c[nH]c3ccccc23)NC(=O)[C@H](CO)NC(=O)[C@H](Cc2c[nH]c3ccccc23)NC(=O)CN(C)C(=O)[C@H](CC(C)C)NC(=O)[C@H](Cc2c[nH]cn2)NC(=O)[C@@H]2CCCN2C(=O)[C@H](CC(N)=O)NC(=O)[C@H](C)N(C)C(=O)[C@H](Cc2ccccc2)NC(=O)CSC[C@@H](C(=O)NCC(N)=O)NC(=O)[C@H](CCCNC(=N)N)NC(=O)[C@H](CCCC)N(C)C1=O
notes: macrocyclic peptide cyclized via the ClAc moiety with the downstream cysteine
B11: Compound No. 54 (peptide)
peptide: {CH2CO}-F[NMeA]NPHLRWSW[NMeNle][NMeNle]RCG-NH2
modifications: thioether N-14
SMILES: CCCC[C@H]1C(=O)N(C)[C@@H](CCCC)C(=O)N[C@@H](CCCNC(=N)N)C(=O)N[C@H](C(=O)NCC(N)=O)CSCC(=O)N[C@@H](Cc2ccccc2)C(=O)N(C)[C@@H](C)C(=O)N[C@@H](CC(N)=O)C(=O)N2CCC[C@H]2C(=O)N[C@@H](Cc2c[nH]cn2)C(=O)N[C@@H](CC(C)C)C(=O)N[C@@H](CCCNC(=N)N)C(=O)N[C@@H](Cc2c[nH]c3ccccc23)C(=O)N[C@@H](CO)C(=O)N[C@@H](Cc2c[nH]c3ccccc23)C(=O)N1C
notes: as for B10
B12: Compound No. 51 (peptide)
peptide: {CH2CO}-F[NMeA]NPHD[Sar]WSW[NMeNle][NMeNle]RCG-NH2
modifications: thioether N-14
SMILES: CCCC[C@H]1C(=O)N(C)[C@@H](CCCC)C(=O)N[C@@H](CCCNC(=N)N)C(=O)N[C@H](C(=O)NCC(N)=O)CSCC(=O)N[C@@H](Cc2ccccc2)C(=O)N(C)[C@@H](C)C(=O)N[C@@H](CC(N)=O)C(=O)N2CCC[C@H]2C(=O)N[C@@H](Cc2c[nH]cn2)C(=O)N[C@@H](CC(=O)O)C(=O)N(C)CC(=O)N[C@@H](Cc2c[nH]c3ccccc23)C(=O)N[C@@H](CO)C(=O)N[C@@H](Cc2c[nH]c3ccccc23)C(=O)N1C
notes: as for B10
B13: Compound No. 53 (peptide)
peptide: {CH2CO}-F[NMeA]NPHLHWSW[NMeNle][NMeNle]RCG-NH2
modifications: thioether N-14
SMILES: CCCC[C@H]1C(=O)N(C)[C@@H](CCCC)C(=O)N[C@@H](CCCNC(=N)N)C(=O)N[C@H](C(=O)NCC(N)=O)CSCC(=O)N[C@@H](Cc2ccccc2)C(=O)N(C)[C@@H](C)C(=O)N[C@@H](CC(N)=O)C(=O)N2CCC[C@H]2C(=O)N[C@@H](Cc2c[nH]cn2)C(=O)N[C@@H](CC(C)C)C(=O)N[C@@H](Cc2c[nH]cn2)C(=O)N[C@@H](Cc2c[nH]c3ccccc23)C(=O)N[C@@H](CO)C(=O)N[C@@H](Cc2c[nH]c3ccccc23)C(=O)N1C
notes: as for B10
B14: Compound No. 55 (peptide)
peptide: {CH2CO}-F[NMeA]NPHLPWSW[NMeNle][NMeNle]RCG-NH2
modifications: thioether N-14
SMILES: CCCC[C@H]1C(=O)N(C)[C@@H](CCCC)C(=O)N[C@@H](CCCNC(=N)N)C(=O)N[C@H](C(=O)NCC(N)=O)CSCC(=O)N[C@@H](Cc2ccccc2)C(=O)N(C)[C@@H](C)C(=O)N[C@@H](CC(N)=O)C(=O)N2CCC[C@H]2C(=O)N[C@@H](Cc2c[nH]cn2)C(=O)N[C@@H](CC(C)C)C(=O)N2CCC[C@H]2C(=O)N[C@@H](Cc2c[nH]c3ccccc23)C(=O)N[C@@H](CO)C(=O)N[C@@H](Cc2c[nH]c3ccccc23)C(=O)N1C
notes: as for B10

Biological target: T1, human PD-L1 (human, UniProt Q9NZQ7 19-239, limits assumed)
T1 construct: also called Hu PD-L1; hPD-L1
T1 sequence (Q9NZQ7 19-239 limits assumed): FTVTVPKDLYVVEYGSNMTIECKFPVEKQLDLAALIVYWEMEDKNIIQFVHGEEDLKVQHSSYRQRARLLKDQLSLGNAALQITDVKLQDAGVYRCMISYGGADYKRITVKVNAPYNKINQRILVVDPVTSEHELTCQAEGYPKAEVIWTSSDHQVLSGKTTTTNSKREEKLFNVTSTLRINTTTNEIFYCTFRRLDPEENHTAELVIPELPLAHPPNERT
Assay: cell binding assay, inhibition of Hu PD-L1/PD-1 binding

IC50 [nM] | Binder
108 | B1
20 | B2
283 | B3
2520 | B4
351 | B5
25 | B6
37 | B7
7 | B8
368 | B9

Biological target: T2, hPDL1(19-239)-TVMV-His (human, UniProt Q9NZQ7 19-239)
T2 construct: The construct name says 19-239, the running text says amino acids 18-239; Expressed in HEK293T cells; also called PD-L1-His; PD-L1-TVMV-His
T2 sequence (Q9NZQ7 other isoform, or with tags, fused parts or gaps limits assumed): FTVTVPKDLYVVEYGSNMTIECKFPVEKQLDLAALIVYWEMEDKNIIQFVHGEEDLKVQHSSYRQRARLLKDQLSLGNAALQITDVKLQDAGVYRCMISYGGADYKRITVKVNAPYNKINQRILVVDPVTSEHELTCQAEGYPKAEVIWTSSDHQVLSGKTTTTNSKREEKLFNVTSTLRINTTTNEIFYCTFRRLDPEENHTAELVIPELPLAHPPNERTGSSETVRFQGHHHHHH
Assay: HTRF competition, PD-1-Ig (20 nM) binding to human PD-L1-His (10 nM)
Protocol: All binding studies were performed in an HTRF assay buffer consisting of dPBS supplemented with 0.1% (w/v) bovine serum albumin and 0.05% (v/v) Tween-20. […] PD-L1 fusion proteins from either human, cynomologous macaques, or mouse were used. HTRF detection was achieved using europium crypate-labeled anti-Ig monoclonal antibody (1 nM final) and allophycocyanin (APC) labeled anti-His monoclonal antibody (20 nM final). Antibodies were diluted in HTRF detection buffer and 5 μl was dispensed on top of binding reaction. The reaction was allowed to equilibrate for 30 minutes and signal (665 nm/620 nm ratio) was obtained using an EnVision fluorometer. […]
HTRF Experiments were performed essentially as outlined supra. Variant macrocyclic peptides were created as outlined herein.

IC50 [nM] | Binder
8680 | B10
26 | B11
23 | B12
34 | B13
4 | B14
